Measured values published in IntAct's records for PubMed 35512704.

B1: Mothers against decapentaplegic homolog 4 (Homo sapiens), Q13485 (parent)
chain: MDNMSITNTPTSNDACLSIVHSLMCHRQGGESETFAKRAIESLVKKLKEKKDELDSLITAITTNGAHPSKCVTIQRTLDGRLQVAGRKGFPHVIYARLWRWPDLHKNELKHVKYCQYAFDLKCDSVCVNPYHYERVVSPGIDLSGLTLQSNAPSSMMVKDEYVHDFEGQPSLSTEGHSIQTIQHPPSNRASTETYSTPALLAPSESNATSTANFPNIPVASTSQPASILGGSHSEGLLQIASGPQPGQQQNGFTGQPATYHHNSTTTWTGSRTAPYTPNLPHHQNGHLQHHPPMPPHPGHYWPVHNELAFQPPISNHPAPEYWCSIAYFEMDVQVGETFKVPSSCPIVTVDGYVDPSGGDRFCLGQLSNVHRTEAIERARLHIGKGVQLECKGEGDVWVRCLSDHAVFVQSYYLDREAGRAPGDAVHKIYPSAYIKVFDLRQCHRQMQQQAATAQAAAAAQAAAVAGNIPGPGSVGGIAPAISLSAAAGIGVDDLRRLCILRMSFVKGWGPDYPRQSIKETPCWIEIHLHRALQLLDEVLHTMPIADPQPLD
partner: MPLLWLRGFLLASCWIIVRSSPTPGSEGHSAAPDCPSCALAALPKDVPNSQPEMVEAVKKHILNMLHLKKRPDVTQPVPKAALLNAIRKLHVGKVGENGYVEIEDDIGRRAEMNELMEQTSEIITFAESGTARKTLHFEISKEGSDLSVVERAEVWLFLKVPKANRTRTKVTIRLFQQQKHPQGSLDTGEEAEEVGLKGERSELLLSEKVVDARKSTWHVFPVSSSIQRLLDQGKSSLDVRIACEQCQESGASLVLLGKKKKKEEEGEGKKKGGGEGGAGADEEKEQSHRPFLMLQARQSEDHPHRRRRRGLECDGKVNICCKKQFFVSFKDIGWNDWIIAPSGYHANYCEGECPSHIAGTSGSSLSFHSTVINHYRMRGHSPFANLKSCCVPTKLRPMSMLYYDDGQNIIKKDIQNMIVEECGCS
B2: Mothers against decapentaplegic homolog 4 (Homo sapiens), Q13485 (parent)
chain: B1 chain
partner: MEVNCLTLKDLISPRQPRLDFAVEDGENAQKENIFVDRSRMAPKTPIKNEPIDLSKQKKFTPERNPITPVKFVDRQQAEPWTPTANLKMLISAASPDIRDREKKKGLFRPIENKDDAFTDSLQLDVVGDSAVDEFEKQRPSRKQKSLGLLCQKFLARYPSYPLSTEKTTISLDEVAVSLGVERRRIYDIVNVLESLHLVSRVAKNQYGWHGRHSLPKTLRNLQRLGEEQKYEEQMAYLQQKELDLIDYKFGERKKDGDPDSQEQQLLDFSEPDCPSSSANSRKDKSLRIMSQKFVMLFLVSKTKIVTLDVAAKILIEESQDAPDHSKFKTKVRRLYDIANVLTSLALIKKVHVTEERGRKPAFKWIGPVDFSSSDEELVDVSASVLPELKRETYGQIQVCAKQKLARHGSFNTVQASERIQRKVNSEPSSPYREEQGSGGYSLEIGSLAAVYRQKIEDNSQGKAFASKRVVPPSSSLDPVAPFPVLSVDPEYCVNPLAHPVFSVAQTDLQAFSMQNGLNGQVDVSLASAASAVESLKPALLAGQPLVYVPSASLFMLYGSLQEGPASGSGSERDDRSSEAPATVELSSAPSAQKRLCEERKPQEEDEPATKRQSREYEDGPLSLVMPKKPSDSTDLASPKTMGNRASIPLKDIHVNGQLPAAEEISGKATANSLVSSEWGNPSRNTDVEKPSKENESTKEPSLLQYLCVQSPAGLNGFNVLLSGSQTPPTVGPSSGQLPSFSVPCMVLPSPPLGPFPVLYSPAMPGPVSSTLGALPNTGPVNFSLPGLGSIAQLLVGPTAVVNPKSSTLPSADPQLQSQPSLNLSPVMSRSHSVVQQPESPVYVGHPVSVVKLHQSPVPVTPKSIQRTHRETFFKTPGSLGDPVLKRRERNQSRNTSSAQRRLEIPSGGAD
B3: Mothers against decapentaplegic homolog 4 (Homo sapiens), Q13485 (parent)
chain: B1 chain
partner: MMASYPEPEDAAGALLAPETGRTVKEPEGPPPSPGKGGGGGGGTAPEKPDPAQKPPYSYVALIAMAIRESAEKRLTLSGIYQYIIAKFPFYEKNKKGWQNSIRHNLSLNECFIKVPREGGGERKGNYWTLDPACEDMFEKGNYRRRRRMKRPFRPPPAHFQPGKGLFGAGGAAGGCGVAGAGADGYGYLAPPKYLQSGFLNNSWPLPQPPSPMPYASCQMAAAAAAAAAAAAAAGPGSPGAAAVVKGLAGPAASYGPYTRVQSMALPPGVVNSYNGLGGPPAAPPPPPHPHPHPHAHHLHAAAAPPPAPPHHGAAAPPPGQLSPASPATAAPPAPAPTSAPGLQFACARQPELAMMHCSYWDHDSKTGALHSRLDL
B4: Mothers against decapentaplegic homolog 4 (Homo sapiens), Q13485 (parent)
chain: B1 chain
partner: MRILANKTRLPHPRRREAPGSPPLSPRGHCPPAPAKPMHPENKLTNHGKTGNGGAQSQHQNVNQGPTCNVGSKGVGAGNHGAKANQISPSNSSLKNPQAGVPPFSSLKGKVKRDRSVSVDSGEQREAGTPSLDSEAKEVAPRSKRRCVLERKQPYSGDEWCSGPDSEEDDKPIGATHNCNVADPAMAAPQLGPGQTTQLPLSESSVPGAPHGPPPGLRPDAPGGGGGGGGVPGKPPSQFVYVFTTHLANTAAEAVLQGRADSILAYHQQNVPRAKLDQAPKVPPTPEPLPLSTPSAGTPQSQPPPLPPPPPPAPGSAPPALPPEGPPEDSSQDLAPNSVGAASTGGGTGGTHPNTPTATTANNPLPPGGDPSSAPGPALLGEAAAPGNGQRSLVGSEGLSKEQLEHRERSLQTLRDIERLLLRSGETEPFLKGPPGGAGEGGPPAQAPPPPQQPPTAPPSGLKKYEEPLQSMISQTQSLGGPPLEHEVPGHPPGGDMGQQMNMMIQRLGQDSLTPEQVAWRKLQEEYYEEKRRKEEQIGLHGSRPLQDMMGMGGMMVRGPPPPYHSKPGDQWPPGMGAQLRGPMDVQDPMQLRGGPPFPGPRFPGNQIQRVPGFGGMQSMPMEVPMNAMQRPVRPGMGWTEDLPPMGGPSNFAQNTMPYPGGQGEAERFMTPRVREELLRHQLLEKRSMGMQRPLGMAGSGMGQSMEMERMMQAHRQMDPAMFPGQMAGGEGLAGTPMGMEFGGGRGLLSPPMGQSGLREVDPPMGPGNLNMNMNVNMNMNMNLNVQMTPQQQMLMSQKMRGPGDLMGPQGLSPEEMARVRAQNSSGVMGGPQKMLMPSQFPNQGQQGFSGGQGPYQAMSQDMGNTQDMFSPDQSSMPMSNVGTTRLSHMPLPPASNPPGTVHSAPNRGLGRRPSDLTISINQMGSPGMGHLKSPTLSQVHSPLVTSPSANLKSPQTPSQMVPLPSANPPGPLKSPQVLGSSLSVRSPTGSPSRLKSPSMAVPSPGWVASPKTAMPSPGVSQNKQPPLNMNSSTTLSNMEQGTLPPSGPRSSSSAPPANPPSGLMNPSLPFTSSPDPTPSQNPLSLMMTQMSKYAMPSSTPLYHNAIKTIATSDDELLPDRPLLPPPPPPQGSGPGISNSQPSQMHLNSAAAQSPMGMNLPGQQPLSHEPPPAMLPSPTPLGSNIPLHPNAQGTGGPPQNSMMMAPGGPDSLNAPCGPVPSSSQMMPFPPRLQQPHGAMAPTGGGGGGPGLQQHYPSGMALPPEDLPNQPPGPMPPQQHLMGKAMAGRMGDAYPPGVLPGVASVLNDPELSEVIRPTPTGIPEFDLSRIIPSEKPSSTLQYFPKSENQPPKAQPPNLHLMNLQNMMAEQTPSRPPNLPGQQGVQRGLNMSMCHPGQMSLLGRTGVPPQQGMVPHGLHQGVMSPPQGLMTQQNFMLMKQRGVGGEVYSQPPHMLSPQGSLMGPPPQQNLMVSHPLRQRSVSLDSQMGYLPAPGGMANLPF

Variants of: B1
Settings: with inhba_human INHBA

Row | Variant | effect of a mutation on the interaction
1 | D351H | with no effect

Variants of: B1
Settings: with inhba_human INHBA
Remark: another data set of the same source

Row | Variant | effect of a mutation on the interaction
2 | G386D | with no effect

Variants of: B2
Settings: with e2f7_human E2F7, Q96AV8

Row | Variant | effect of a mutation on the interaction
3 | D351H | with no effect

Variants of: B2
Settings: with e2f7_human E2F7, Q96AV8
Remark: another data set of the same source

Row | Variant | effect of a mutation on the interaction
4 | G386D | with no effect

Variants of: B3
Settings: with foxl2_human FOXL2, P58012

Row | Variant | effect of a mutation on the interaction
5 | G386D | with no effect

Variants of: B3
Settings: with foxl2_human FOXL2, P58012
Remark: another data set of the same source

Row | Variant | effect of a mutation on the interaction
6 | R361C | with no effect

Variants of: B3
Settings: with foxl2_human FOXL2, P58012
Remark: another data set of the same source

Row | Variant | effect of a mutation on the interaction
7 | R361H | with no effect

Variants of: B3
Settings: with foxl2_human FOXL2, P58012
Remark: another data set of the same source

Row | Variant | effect of a mutation on the interaction
8 | D351H | with no effect

Variants of: B4
Settings: with bcl9l_human BCL9L

Row | Variant | effect of a mutation on the interaction
9 | R361C | with no effect

Variants of: B4
Settings: with bcl9l_human BCL9L
Remark: another data set of the same source

Row | Variant | effect of a mutation on the interaction
10 | R361H | with no effect

Variants of: B4
Settings: with bcl9l_human BCL9L
Remark: another data set of the same source

Row | Variant | effect of a mutation on the interaction
11 | D351H | with no effect

Variants of: B4
Settings: with bcl9l_human BCL9L
Remark: another data set of the same source

Row | Variant | effect of a mutation on the interaction
12 | G386D | with no effect
